# US20120213763A1 (COUNCIL OF SCIENTIFIC AND INDUSTRIAL RESEARCH, published 2012)
# T1: PEGylated SK D96C (SEQ ID NO 31)
# T1 chain: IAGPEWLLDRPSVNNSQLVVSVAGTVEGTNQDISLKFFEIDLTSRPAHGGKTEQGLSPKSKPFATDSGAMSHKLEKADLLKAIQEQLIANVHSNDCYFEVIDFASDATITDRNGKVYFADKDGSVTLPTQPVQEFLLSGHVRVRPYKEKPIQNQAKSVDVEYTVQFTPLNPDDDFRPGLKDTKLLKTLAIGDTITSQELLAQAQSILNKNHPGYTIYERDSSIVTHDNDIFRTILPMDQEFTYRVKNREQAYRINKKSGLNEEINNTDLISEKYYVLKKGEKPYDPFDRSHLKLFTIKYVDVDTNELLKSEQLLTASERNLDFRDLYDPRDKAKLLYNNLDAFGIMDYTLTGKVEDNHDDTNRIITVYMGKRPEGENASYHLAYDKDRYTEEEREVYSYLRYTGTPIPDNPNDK
# T2: PEGylated SK K121C (SEQ ID NO 35)
# T2 chain: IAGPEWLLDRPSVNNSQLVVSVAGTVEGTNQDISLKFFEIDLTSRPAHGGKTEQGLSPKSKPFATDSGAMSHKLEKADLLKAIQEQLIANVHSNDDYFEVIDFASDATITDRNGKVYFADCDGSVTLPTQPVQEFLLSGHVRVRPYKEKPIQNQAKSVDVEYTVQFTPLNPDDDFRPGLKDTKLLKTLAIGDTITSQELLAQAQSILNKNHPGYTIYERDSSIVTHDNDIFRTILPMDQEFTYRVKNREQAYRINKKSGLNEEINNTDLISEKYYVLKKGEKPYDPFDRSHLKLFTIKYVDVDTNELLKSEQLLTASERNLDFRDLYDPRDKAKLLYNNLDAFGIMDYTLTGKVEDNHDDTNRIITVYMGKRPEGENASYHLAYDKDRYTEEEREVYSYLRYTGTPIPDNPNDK
# T3: PEGylated SK L179C (SEQ ID NO 41)
# T3 chain: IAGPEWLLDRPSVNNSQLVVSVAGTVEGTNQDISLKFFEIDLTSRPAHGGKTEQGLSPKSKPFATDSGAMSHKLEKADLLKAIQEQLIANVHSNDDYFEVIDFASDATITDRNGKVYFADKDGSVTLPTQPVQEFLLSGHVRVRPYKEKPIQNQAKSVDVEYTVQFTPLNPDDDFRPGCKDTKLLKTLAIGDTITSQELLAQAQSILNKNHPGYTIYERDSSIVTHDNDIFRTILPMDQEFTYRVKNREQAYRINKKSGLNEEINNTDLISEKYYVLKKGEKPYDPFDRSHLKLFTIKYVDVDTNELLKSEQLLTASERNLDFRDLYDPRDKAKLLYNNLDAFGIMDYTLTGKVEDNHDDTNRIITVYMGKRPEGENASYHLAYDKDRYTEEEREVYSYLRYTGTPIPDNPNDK
# T4: PEGylated SK L260C (SEQ ID NO 50)
# T4 chain: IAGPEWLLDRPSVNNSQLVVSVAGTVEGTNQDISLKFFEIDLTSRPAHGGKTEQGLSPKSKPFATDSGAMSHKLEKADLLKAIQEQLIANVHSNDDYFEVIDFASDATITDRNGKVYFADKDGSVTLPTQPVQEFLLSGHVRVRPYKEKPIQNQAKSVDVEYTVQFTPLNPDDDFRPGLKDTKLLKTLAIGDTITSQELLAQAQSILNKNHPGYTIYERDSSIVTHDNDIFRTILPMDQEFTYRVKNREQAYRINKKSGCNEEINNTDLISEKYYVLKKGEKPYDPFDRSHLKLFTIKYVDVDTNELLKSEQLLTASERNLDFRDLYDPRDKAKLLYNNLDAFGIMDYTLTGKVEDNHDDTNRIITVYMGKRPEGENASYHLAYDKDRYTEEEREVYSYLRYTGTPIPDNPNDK
# T5: PEGylated SK Lys 257 Cys (SEQ ID NO 48)
# T5 chain: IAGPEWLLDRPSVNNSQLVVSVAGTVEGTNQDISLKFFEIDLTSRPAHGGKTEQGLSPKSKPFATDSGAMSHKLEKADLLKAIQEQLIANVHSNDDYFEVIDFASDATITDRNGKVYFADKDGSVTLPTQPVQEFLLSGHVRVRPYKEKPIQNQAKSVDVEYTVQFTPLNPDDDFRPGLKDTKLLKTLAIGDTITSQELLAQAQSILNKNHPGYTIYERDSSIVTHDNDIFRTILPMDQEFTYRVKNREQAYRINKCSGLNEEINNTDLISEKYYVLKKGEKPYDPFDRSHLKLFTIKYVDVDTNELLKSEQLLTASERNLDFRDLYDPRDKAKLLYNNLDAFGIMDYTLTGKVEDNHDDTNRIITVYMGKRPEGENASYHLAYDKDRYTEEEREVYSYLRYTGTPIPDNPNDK
# T6: PEGylated SK N-Cys (SEQ ID NO 489), Cys at N - 1 position in SK
# T6 chain: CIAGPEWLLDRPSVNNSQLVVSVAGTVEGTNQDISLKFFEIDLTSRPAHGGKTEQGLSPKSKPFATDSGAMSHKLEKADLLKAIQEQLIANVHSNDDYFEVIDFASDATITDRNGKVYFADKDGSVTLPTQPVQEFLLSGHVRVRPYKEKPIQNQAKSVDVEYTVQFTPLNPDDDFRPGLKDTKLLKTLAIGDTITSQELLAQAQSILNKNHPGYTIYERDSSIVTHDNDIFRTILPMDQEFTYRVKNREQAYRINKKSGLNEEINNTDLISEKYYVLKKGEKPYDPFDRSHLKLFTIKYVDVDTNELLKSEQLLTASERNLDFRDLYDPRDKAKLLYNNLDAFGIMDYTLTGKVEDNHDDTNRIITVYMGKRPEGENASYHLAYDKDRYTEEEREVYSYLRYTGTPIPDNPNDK
# T7: PEGylated SK S105C (SEQ ID NO 33)
# T7 chain: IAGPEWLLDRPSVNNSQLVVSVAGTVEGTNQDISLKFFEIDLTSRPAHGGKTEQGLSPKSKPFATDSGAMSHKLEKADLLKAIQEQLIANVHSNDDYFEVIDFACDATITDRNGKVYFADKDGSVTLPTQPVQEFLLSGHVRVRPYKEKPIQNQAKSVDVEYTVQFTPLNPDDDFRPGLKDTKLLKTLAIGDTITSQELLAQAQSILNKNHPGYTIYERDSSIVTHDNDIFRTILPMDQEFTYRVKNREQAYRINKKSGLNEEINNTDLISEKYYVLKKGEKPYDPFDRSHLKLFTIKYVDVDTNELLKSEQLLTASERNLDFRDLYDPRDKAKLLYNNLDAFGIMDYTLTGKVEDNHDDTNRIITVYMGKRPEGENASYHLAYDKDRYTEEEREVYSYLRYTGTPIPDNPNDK
# B1: human plasminogen (HPG) (protein)
# chain: KVYLSECKTGNGKNYRGTMSKTKNGITCQKWSSTSPHRPRFSPATHPSEGLEENYCRNPDNDPQGPWCYTTDPEKRYDYCDILECEEECMHCSGENYDGKISKTMSGLECQAWDSQSPHAHGYIPSKFPNKNLKKNYCRNPDRELRPWCFTTDPNKRWELCDIPRCTTPPPSSGPTYQCLKGTGENYRGNVAVTVSGHTCQHWSAQTPHTHNRTPENFPCKNLDENYCRNPDGKRAPWCHTTNSQVRWEYCKIPSCDSSPVSTEQLAPTAPPELTPVVQDCYHGDGQSYRGTSSTTTTGKKCQSWSSMTPHRHQKTPENYPNAGLTMNYCRNPDADKGPWCFTTDPSVRWEYCNLKKCSGTEASVVAPPPVVLLPDVETPSEEDCMFGNGKGYRGKRATTVTGTPCQDWAAQEPHRHSIFTPETNPRAGLEKNYCRNPDGDVGGPWCYTTNPRKLYDYCDVPQCAAPSFDCGKPQVEPKKCPGRVVGGCVAHPHSWPWQVSLRTRFGMHFCGGTLISPEWVLTAAHCLEKSPRPSSYKVILGAHQEVNLEPHVQEIEVSRLFLEPTRKDIALLKLSSPAVITDKVIPACLPSPNYVVADRTECFITGWGETQGTFGAGLLKEAQLPVIENKVCNRYEFLNGRVQSTELCAGHLAGGTDSCQGDSGGPLVCFEKDKYILQGVTSWGLGCARPNKPGVYVRVSRFVTWIEGVMRNN
# Tests used:
# [1] = molecular target: T1, PEGylated SK D96C (SEQ ID NO 31)
# [2] = molecular target: T2, PEGylated SK K121C (SEQ ID NO 35)
# [3] = molecular target: T3, PEGylated SK L179C (SEQ ID NO 41)
# [4] = molecular target: T4, PEGylated SK L260C (SEQ ID NO 50)
# [5] = molecular target: T5, PEGylated SK Lys 257 Cys (SEQ ID NO 48)
# [6] = molecular target: T6, PEGylated SK N-Cys (SEQ ID NO 489), Cys …
# [7] = molecular target: T7, PEGylated SK S105C (SEQ ID NO 33)
protein,measurement,setting,value
B1,Km,[1],0.5 µM
same,Km,[2],0.4 µM
same,Km,[3],0.5 µM
same,Km,[4],0.6 µM
same,Km,[5],0.4 µM
same,Km,[6],0.4 µM
same,Km,[7],0.5 µM
